First the molecules themselves.
B1: Ribonuclease, P00648 (parent)
chain: MMKMEGIALKKRLSWISVCLLVLVSAAGMLFSTAAKTETSSHKAHTEAQVINTFDGVADYLQTYHKLPDNYITKSEAQALGWVASKGNLADVAPGKSIGGDIFSNREGKLPGKSGRTWREADINYTSGFRNSDRILYSSDWLIYKTTDHYQTFTKIR

The variants in the data set derive from B1. As to conditions: Bacillus amyloliquefaciens; pH 6.3; 25 °C; Urea; Fluorescence; MES 50 mM; reversible: yes; structure 1BNI; whole UniProt chain shown.

In the case of MMKMEGIALKKRLSWISVCLLVLVSAAGMLFSTAAKTETSSHKAHTEAQVINTFAGVADYLQTYHKLPDNYITKSEAQALGWVASKGNLADVAPGKSIGGDIFSNREGKLPGKSGRTWREADINYTSGFRNSDRILYSSDWLIYKTTDHYQTFTKIR [D55A], the “ddG of mutation (higher = less stable)” value stood at 0.99 kcal/mol, the denaturant m value came to 2.15 kcal/mol/M, the “denaturant midpoint (higher = more stable)” value (“denaturant midpoint” for short) amounted to 4.12 M and the unfolding free energy turned out to be 8.94 kcal/mol.
MMKMEGIALKKRLSWISVCLLVLVSAAGMLFSTAAKTETSSHKAHTEAQVINTFDGVADYLQTYHKLPDNYITKSEAQALGWVASKGNLADVAPGKSIGGDIFSNREGKLPGKSGRTWREADINYTSGFRNSDRILYSSDWLIYKTTDHYQTFTKIA [R157A]: the “ddG of mutation (higher = less stable)” value was determined as 0.46 kcal/mol, the denaturant m value was 2.26 kcal/mol/M, the “denaturant midpoint” value was found to be 4.37 M and the unfolding free energy was determined as 9.47 kcal/mol.
On to MMKMEGIALKKRLSWISVCLLVLVSAAGMLFSTAAKTETSSHKAHTEAQVINTFAGVADYLQTYHKLPDNYITKSEAQALGWVASKGNLADVAPGKSIGGDIFSNREGKLPGKSGRTWREADINYTSGFRNSDRILYSSDWLIYKTTDHYQTFTKIA [D55A R157A], for which the “ddG of mutation (higher = less stable)” value is 0.47 kcal/mol, the denaturant m value came to 1.96 kcal/mol/M, the “denaturant midpoint” value was 4.36 M and the unfolding free energy is 9.46 kcal/mol.
Taken in the same sequence, the figures for MMKMEGIALKKRLSWISVCLLVLVSAAGMLFSTAAKTETSSHKAHTEAQVINTFAGVAAYLQTYHKLPDNYITKSEAQALGWVASKGNLADVAPGKSIGGDIFSNREGKLPGKSGRTWREADINYTSGFRNSDRILYSSDWLIYKTTDHYQTFTKIA [D55A D59A R157A] were -0.11 kcal/mol, 2.16 kcal/mol/M, 4.63 M and 10 kcal/mol.
On the same counts, the results for MMKMEGIALKKRLSWISVCLLVLVSAAGMLFSTAAKTETSSHKAHTEAQVINTFAGVAAYLQTYHKLPDNYITKSEAQALGWVASKGNLADVAPGKSIGGDIFSNREGKLPGKSGRTWREADINYTSGFRNSDRILYSSDWLIYKTTDHYQTFTKIR [D55A D59A] are 0.89 kcal/mol, 1.98 kcal/mol/M, 4.16 M and 9.04 kcal/mol.
Taken in the same sequence, the figures for MMKMEGIALKKRLSWISVCLLVLVSAAGMLFSTAAKTETSSHKAHTEAQVINTFDGVAAYLQTYHKLPDNYITKSEAQALGWVASKGNLADVAPGKSIGGDIFSNREGKLPGKSGRTWREADINYTSGFRNSDRILYSSDWLIYKTTDHYQTFTKIR [D59A] were 0.34 kcal/mol, 2.12 kcal/mol/M, 4.42 M and 9.59 kcal/mol.
MMKMEGIALKKRLSWISVCLLVLVSAAGMLFSTAAKTETSSHKAHTEAQVINTFDGVAAYLQTYHKLPDNYITKSEAQALGWVASKGNLADVAPGKSIGGDIFSNREGKLPGKSGRTWREADINYTSGFRNSDRILYSSDWLIYKTTDHYQTFTKIA [D59A R157A]: the “ddG of mutation (higher = less stable)” value was -0.45 kcal/mol, the denaturant m value stood at 2.14 kcal/mol/M, the “denaturant midpoint” value came out at 4.78 M and the unfolding free energy was determined as 10.4 kcal/mol.

The values above are taken from FireProtDB (doi:10.1016/s0022-2836(99)80018-7).
